From publication PMC9506415

Biological target: human fibronectin (human) (UniProt P02751)
Assay: dual-polarization interferometry (DPI); 100 μg/mL FN immobilised on an amine-functionalised AnaChip, sealing agent, then samples injected; Tris-HCl pH 7.4 with 0.1 M NaCl; layer thickness and mass resolved

Work on bovine gelatin (G9382, type B) yielded a resolved layer mass after adsorption of gelatin (3.68 ng/mm^2 before) of 3.86 ng/mm^2 and a resolved layer thickness after adsorption of gelatin (11.60 nm before) of 12.6 nm.
